Measured values published in patent US20250339531A1, “DUX4 POLYPEPTIDES AND NUCLEIC ACIDS FOR TREATING INFLAMMATORY AND AUTOIMMUNE CONDITIONS” (Fred Hutchinson Cancer Center, priority 2021, published 2025).

Assays:
[1] = target: Neutral cholesterol ester hydrolase 1 (Homo sapiens) (UniProt Q6PIU2); experiment: anti-FLAG co-IP LC-MS, exp 3, +Dox
[2] = target: Cytoskeleton-associated protein 4 (Homo sapiens) (UniProt Q07065); experiment: anti-FLAG co-IP LC-MS, exp 3, +Dox
[3] = target: Neuroblast differentiation-associated protein AHNAK (Homo sapiens) (UniProt Q09666); experiment: anti-FLAG co-IP LC-MS, exp 3, +Dox
[4] = target: 60S ribosomal protein L13 (Homo sapiens) (UniProt P26373); experiment: anti-FLAG co-IP LC-MS, exp 3, +Dox
[5] = target: 40S ribosomal protein S14 (Homo sapiens) (UniProt P62263); experiment: anti-FLAG co-IP LC-MS, exp 3, +Dox
[6] = target: Plectin (Homo sapiens) (UniProt Q15149); experiment: anti-FLAG co-IP LC-MS, exp 3, +Dox
[7] = target: Heat shock protein HSP 90-beta (Homo sapiens) (UniProt P08238); experiment: anti-FLAG co-IP LC-MS, exp 3, +Dox
[8] = target: Prostate tumor-overexpressed gene 1 protein (Homo sapiens) (UniProt Q86YD1); experiment: anti-FLAG co-IP LC-MS, exp 3, +Dox
[9] = target: Protein disulfide-isomerase (Homo sapiens) (UniProt P07237); experiment: anti-FLAG co-IP LC-MS, exp 3, +Dox
Chain of Protein disulfide-isomerase (Homo sapiens) (P07237 18-508 limits assumed): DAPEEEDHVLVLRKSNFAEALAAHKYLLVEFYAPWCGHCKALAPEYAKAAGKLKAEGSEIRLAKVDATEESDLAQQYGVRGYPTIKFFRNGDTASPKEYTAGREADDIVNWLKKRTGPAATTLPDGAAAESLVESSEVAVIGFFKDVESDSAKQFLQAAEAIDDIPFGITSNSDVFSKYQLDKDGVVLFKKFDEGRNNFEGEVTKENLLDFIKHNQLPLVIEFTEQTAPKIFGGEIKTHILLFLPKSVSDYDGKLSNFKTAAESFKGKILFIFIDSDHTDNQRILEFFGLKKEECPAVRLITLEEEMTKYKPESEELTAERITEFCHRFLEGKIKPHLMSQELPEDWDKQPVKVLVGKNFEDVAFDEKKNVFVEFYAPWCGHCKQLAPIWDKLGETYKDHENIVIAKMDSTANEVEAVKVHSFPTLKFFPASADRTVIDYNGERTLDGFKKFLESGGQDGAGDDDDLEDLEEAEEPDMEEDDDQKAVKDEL

[10] = target: Myosin-9 (Homo sapiens) (UniProt P35579); experiment: anti-FLAG co-IP LC-MS, exp 3, +Dox
[11] = target: Plasminogen activator inhibitor 1 RNA-binding protein (Homo sapiens) (UniProt Q8NC51); experiment: anti-FLAG co-IP LC-MS, exp 3, +Dox
[12] = target: Tubulin beta-2A chain (Homo sapiens) (UniProt Q13885); experiment: anti-FLAG co-IP LC-MS, exp 3, +Dox
[13] = target: Desmin (Homo sapiens) (UniProt P17661); experiment: anti-FLAG co-IP LC-MS, exp 3, +Dox
[14] = target: Serine/threonine-protein phosphatase 2A 65 kDa regulatory subunit A alpha isoform (Homo sapiens) (UniProt P30153); experiment: anti-FLAG co-IP LC-MS, exp 3, +Dox
[15] = target: Prolyl 4-hydroxylase subunit alpha-1 (Homo sapiens) (UniProt P13674); experiment: anti-FLAG co-IP LC-MS, exp 3, +Dox
Chain of Prolyl 4-hydroxylase subunit alpha-1 (Homo sapiens) (P13674 18-534 limits assumed): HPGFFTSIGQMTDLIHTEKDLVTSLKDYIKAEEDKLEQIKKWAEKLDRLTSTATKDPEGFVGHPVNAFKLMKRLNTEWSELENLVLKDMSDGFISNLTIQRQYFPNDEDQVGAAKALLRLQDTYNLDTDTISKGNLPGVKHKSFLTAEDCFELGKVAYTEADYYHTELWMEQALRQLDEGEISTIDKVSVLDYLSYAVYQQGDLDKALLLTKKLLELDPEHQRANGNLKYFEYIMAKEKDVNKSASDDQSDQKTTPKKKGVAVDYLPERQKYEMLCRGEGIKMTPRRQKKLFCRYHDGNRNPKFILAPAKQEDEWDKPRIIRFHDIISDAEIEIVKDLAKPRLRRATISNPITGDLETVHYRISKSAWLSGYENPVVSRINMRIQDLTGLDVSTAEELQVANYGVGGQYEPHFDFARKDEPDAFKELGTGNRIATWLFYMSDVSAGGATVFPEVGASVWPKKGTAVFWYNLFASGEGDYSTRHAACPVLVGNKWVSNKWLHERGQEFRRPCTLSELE

[16] = target: Tubulin beta-6 chain (Homo sapiens) (UniProt Q9BUF5); experiment: anti-FLAG co-IP LC-MS, exp 3, +Dox
[17] = target: Fibronectin (Homo sapiens) (UniProt P02751); experiment: anti-FLAG co-IP LC-MS, exp 3, +Dox
Chain of Fibronectin (Homo sapiens) (P02751 32-2477 limits assumed): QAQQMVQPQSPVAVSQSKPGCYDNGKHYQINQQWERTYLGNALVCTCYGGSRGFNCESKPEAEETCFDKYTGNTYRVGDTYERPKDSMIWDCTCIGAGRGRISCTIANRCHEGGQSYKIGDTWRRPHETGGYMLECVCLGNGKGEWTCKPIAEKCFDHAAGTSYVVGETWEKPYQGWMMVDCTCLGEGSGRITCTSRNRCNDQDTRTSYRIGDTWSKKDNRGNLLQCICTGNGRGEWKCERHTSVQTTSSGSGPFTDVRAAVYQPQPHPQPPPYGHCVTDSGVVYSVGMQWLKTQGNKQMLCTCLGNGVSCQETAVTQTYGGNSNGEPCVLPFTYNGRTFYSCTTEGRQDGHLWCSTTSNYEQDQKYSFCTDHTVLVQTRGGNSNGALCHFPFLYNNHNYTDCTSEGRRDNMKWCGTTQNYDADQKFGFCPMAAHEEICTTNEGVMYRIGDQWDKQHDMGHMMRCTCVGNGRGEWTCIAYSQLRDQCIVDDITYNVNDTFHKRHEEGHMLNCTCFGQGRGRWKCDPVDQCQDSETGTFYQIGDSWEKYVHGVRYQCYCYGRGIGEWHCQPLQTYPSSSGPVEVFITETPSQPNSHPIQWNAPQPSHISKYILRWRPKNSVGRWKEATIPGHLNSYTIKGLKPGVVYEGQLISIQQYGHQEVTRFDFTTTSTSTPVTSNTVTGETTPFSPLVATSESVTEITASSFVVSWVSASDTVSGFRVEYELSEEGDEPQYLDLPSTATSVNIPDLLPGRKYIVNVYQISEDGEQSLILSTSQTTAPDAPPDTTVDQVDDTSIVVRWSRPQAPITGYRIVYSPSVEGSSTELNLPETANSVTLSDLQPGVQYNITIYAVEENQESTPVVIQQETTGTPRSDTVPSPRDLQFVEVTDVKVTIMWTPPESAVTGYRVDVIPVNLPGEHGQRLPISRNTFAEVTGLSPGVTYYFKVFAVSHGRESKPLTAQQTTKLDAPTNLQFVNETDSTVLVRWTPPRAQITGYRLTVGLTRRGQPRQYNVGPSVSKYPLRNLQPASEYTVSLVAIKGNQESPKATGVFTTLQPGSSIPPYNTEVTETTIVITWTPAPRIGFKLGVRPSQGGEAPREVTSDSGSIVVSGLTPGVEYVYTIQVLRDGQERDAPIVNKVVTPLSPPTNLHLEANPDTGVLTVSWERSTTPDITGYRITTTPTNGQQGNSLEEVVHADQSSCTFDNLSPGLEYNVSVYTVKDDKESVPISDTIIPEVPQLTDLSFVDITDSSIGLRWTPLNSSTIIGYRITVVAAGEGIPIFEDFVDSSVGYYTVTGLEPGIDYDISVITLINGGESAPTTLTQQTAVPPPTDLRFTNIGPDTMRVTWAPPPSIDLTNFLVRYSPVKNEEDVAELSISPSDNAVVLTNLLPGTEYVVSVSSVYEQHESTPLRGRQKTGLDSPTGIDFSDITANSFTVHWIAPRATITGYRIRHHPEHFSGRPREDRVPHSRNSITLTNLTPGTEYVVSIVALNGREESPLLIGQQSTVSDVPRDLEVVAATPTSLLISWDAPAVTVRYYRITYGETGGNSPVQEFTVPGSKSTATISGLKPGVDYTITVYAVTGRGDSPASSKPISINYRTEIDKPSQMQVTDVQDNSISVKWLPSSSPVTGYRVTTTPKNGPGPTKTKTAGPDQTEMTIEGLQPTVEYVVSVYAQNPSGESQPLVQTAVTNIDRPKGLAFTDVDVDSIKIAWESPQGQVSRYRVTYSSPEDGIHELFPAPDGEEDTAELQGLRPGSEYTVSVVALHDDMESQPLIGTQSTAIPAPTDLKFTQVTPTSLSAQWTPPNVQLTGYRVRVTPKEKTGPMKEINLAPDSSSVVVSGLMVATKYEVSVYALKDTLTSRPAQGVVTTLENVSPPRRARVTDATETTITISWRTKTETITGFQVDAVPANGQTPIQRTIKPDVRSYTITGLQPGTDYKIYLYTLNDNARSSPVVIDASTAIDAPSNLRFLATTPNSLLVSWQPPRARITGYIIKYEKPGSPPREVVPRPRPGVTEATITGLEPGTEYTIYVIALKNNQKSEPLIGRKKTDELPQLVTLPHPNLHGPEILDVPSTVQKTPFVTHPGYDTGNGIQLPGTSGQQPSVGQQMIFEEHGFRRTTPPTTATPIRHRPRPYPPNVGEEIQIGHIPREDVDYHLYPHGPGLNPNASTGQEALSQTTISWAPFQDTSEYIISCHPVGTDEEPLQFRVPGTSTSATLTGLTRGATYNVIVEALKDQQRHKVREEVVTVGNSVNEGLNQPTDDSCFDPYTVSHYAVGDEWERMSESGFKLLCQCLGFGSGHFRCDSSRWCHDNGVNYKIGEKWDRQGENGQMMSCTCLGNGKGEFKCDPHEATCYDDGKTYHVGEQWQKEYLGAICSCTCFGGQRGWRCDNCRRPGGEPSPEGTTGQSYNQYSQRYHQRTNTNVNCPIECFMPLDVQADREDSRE

[18] = target: Drebrin (Homo sapiens) (UniProt Q16643); experiment: anti-FLAG co-IP LC-MS, exp 3, +Dox
[19] = target: 40S ribosomal protein S3a (Homo sapiens) (UniProt P61247); experiment: anti-FLAG co-IP LC-MS, exp 3, +Dox
[20] = target: Nucleophosmin (Homo sapiens) (UniProt P06748); experiment: anti-FLAG co-IP LC-MS, exp 3, +Dox
[21] = target: Tubulin beta chain (Homo sapiens) (UniProt P07437); experiment: anti-FLAG co-IP LC-MS, exp 3, +Dox
[22] = target: Elongation factor 1-gamma (Homo sapiens) (UniProt P26641); experiment: anti-FLAG co-IP LC-MS, exp 3, +Dox
Chain of Elongation factor 1-gamma (Homo sapiens) (P26641 2-437 limits assumed): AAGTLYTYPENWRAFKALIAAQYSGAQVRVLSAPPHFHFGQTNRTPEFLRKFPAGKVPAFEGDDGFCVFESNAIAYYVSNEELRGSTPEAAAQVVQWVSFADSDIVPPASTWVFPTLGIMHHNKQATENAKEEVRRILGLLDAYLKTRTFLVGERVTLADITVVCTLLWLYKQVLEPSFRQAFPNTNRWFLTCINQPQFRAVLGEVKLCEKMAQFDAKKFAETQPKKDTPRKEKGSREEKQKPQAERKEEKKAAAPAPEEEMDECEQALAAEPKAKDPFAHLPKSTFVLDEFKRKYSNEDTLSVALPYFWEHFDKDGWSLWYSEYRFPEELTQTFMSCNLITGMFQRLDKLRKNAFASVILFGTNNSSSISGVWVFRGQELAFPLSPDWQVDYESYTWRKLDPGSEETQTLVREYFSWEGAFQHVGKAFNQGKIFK

[23] = target: Alpha-actinin-4 (Homo sapiens) (UniProt O43707); experiment: anti-FLAG co-IP LC-MS, exp 3, +Dox
Chain of Alpha-actinin-4 (Homo sapiens) (O43707 whole entry): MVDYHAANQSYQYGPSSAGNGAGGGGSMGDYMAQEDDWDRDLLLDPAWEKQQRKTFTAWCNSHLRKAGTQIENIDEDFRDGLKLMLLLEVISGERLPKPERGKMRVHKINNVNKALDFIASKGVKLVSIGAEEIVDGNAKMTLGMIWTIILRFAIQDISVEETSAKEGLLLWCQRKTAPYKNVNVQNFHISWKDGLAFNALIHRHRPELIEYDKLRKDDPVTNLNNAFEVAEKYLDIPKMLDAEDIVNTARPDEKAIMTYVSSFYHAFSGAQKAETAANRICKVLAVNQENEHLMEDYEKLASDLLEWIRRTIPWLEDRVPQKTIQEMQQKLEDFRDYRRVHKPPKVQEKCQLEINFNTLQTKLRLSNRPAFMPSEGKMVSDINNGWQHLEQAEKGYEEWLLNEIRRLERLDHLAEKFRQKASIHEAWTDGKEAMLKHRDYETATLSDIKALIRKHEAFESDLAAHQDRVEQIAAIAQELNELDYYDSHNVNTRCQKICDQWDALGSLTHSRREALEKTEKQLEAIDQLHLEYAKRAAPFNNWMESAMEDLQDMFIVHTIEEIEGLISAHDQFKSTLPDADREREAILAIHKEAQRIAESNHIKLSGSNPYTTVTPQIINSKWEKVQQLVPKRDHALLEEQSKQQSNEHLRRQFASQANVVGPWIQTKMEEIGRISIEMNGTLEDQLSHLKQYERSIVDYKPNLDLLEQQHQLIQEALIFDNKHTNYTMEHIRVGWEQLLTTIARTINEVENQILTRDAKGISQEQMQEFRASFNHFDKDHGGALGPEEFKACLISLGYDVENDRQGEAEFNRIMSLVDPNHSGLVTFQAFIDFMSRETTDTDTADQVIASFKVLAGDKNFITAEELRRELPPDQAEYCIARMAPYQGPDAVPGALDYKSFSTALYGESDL

[24] = target: S-adenosylhomocysteine hydrolase-like protein 1 (Homo sapiens) (UniProt O43865); experiment: anti-FLAG co-IP LC-MS, exp 3, +Dox
[25] = target: Filamin-C (Homo sapiens) (UniProt Q14315); experiment: anti-FLAG co-IP LC-MS, exp 3, +Dox
[26] = target: Heterogeneous nuclear ribonucleoprotein K (Homo sapiens) (UniProt P61978); experiment: anti-FLAG co-IP LC-MS, exp 3, +Dox
[27] = target: Ribonuclease inhibitor (Homo sapiens) (UniProt P13489); experiment: anti-FLAG co-IP LC-MS, exp 3, +Dox
[28] = target: Dynactin subunit 1 (Homo sapiens) (UniProt Q14203); experiment: anti-FLAG co-IP LC-MS, exp 4, +Dox +IFNG
[29] = target: 60S ribosomal protein L13 (Homo sapiens) (UniProt P26373); experiment: anti-FLAG co-IP LC-MS, exp 4, +Dox +IFNG
[30] = target: Phosphate carrier protein, mitochondrial (Homo sapiens) (UniProt Q00325); experiment: anti-FLAG co-IP LC-MS, exp 4, +Dox +IFNG
[31] = target: Spectrin beta chain (Homo sapiens) (UniProt Q01082); experiment: anti-FLAG co-IP LC-MS, exp 4, +Dox +IFNG
[32] = target: Filamin-A (Homo sapiens) (UniProt P21333); experiment: anti-FLAG co-IP LC-MS, exp 4, +Dox +IFNG
[33] = target: 40S ribosomal protein S3a (Homo sapiens) (UniProt P61247); experiment: anti-FLAG co-IP LC-MS, exp 4, +Dox +IFNG
[34] = target: Capping protein (Actin filament) muscle Z-line, beta, isoform CRA_d (Homo sapiens) (UniProt B1AK88); experiment: anti-FLAG co-IP LC-MS, exp 4, +Dox +IFNG
Chain of Capping protein (Actin filament) muscle Z-line, beta, isoform CRA_d (Homo sapiens) (B1AK88 entry or part of it limits assumed, form in doubt): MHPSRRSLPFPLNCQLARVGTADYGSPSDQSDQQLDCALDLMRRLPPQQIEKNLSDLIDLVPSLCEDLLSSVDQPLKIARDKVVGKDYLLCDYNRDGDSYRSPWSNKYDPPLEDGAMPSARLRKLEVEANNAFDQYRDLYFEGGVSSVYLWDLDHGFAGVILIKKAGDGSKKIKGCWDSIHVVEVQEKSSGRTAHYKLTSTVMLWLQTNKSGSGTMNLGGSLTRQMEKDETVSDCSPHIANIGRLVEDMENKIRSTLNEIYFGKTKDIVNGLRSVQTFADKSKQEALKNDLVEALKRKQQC

[35] = target: cAMP-dependent protein kinase type I-alpha regulatory subunit (Homo sapiens) (UniProt P10644); experiment: anti-FLAG co-IP LC-MS, exp 4, +Dox +IFNG
[36] = target: Myosin regulatory light chain 12A (Homo sapiens) (UniProt J3QRS3); experiment: anti-FLAG co-IP LC-MS, exp 4, +Dox +IFNG
[37] = target: Stress-70 protein, mitochondrial (Homo sapiens) (UniProt P38646); experiment: anti-FLAG co-IP LC-MS, exp 4, +Dox +IFNG
[38] = target: 60S ribosomal protein L8 (Homo sapiens) (UniProt P62917); experiment: anti-FLAG co-IP LC-MS, exp 4, +Dox +IFNG
[39] = target: Alpha-enolase (Homo sapiens) (UniProt P06733); experiment: anti-FLAG co-IP LC-MS, exp 4, +Dox +IFNG

Substance: i3XFLAG-NLS-CTDaa154-424
- PSMs [1]: 3 PSMs
- PSMs [2]: 30 PSMs
- PSMs [3]: 8 PSMs
- PSMs [4]: 2 PSMs
- PSMs [5]: 2 PSMs
- PSMs [6]: 5 PSMs
- PSMs [7]: 2 PSMs
- PSMs [8]: 2 PSMs
- PSMs [9]: 3 PSMs
- PSMs [10]: 122 PSMs
- PSMs [11]: 2 PSMs
- PSMs [12]: 35 PSMs
- PSMs [13]: 9 PSMs
- PSMs [14]: 5 PSMs
- PSMs [15]: 3 PSMs
- PSMs [16]: 20 PSMs
- PSMs [17]: 17 PSMs
- PSMs [18]: 3 PSMs
- PSMs [19]: 3 PSMs
- PSMs [20]: 2 PSMs
- PSMs [21]: 41 PSMs
- PSMs [22]: 3 PSMs
- PSMs [23]: 2 PSMs
- PSMs [24]: 7 PSMs
- PSMs [25]: 2 PSMs
- PSMs [26]: 2 PSMs
- PSMs [27]: 3 PSMs
- PSMs [28]: 2 PSMs
- PSMs [29]: 2 PSMs
- PSMs [30]: 2 PSMs
- PSMs [31]: 3 PSMs
- PSMs [32]: 10 PSMs
- PSMs [33]: 2 PSMs
- PSMs [34]: 11 PSMs
- PSMs [35]: 3 PSMs
- PSMs [36]: 62 PSMs
- PSMs [37]: 7 PSMs
- PSMs [38]: 2 PSMs
- PSMs [39]: 2 PSMs
